The results in this text go back to paper PMC12305709, “Functional investigation of the RNA helicase MOV10 with respect to its interplay with factors involved in nonsense-mediated mRNA decay” (The Journal of Biological Chemistry, 2025).

What is called Kd is the equilibrium constant for the complex coming apart.

In data set [1] the target is GST-MOV10NTD-UPF1hel (human) (UniProt Q92900).
Data set [2] deals with T1, UPF1 (Homo sapiens, UniProt Q92900-2 115-914).
T1 sequence: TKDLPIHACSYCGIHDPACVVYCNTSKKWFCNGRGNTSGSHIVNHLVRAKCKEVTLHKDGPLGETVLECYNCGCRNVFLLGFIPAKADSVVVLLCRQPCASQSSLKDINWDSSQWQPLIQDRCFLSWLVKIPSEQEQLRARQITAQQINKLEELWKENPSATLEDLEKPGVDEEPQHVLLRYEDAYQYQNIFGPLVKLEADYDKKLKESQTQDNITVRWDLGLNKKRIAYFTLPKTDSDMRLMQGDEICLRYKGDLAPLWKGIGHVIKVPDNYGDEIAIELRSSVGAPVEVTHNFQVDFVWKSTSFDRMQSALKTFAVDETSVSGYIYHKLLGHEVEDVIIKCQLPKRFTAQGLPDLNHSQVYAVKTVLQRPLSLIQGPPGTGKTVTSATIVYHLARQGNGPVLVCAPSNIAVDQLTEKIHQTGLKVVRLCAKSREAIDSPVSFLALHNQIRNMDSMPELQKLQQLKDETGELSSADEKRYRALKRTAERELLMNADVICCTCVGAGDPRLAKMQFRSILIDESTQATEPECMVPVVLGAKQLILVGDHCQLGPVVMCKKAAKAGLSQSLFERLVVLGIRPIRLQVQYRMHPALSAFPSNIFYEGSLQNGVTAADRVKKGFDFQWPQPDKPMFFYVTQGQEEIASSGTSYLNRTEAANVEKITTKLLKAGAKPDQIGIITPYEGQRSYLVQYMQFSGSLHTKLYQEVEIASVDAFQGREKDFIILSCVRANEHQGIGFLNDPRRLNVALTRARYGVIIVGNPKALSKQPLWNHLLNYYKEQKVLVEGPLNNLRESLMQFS

For data set [3], the target named is T2, Flag-MOV10hel (human, UniProt Q9HCE1 289-1001).
T2 construct: MOV10, human, helicase core, residues 289-1001; also called helicase core of MOV10; source: HEK293, transfected, immunopurified on anti-Flag M2 agarose
T2 sequence (looked up): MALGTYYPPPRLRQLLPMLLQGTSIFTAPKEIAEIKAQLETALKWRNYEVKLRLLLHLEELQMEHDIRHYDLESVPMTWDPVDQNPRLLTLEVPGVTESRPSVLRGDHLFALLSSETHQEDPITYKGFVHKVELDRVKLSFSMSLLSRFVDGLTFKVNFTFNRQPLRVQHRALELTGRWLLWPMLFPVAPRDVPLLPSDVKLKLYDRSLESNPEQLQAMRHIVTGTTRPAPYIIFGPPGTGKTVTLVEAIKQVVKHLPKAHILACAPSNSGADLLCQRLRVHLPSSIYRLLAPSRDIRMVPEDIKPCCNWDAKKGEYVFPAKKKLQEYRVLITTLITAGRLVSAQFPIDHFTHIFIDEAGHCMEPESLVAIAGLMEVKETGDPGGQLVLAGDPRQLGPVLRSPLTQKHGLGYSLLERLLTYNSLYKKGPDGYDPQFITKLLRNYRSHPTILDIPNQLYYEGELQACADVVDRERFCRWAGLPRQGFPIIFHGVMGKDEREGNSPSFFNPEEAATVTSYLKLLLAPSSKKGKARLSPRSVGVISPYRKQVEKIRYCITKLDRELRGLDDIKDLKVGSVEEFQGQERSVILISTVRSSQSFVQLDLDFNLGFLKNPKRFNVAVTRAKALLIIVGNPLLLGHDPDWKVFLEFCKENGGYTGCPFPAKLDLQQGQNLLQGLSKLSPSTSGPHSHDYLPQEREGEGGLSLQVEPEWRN
Nature of the data set: co-IP; as a2, but cell lysates treated with RNase A (60 ug/uL, 10 min, 25 C); SDS-PAGE, Coomassie, densitometry of the UPF2 band. The following applies: both partners purified.

Data set [4] addresses T3, MOV10NTD-UPF1hel (Chimera 3) (Homo sapiens, UniProt Q9HCE1 1-264+=GSAGAAGSGA+Q92900-2:295-914, internal_change).
T3 sequence: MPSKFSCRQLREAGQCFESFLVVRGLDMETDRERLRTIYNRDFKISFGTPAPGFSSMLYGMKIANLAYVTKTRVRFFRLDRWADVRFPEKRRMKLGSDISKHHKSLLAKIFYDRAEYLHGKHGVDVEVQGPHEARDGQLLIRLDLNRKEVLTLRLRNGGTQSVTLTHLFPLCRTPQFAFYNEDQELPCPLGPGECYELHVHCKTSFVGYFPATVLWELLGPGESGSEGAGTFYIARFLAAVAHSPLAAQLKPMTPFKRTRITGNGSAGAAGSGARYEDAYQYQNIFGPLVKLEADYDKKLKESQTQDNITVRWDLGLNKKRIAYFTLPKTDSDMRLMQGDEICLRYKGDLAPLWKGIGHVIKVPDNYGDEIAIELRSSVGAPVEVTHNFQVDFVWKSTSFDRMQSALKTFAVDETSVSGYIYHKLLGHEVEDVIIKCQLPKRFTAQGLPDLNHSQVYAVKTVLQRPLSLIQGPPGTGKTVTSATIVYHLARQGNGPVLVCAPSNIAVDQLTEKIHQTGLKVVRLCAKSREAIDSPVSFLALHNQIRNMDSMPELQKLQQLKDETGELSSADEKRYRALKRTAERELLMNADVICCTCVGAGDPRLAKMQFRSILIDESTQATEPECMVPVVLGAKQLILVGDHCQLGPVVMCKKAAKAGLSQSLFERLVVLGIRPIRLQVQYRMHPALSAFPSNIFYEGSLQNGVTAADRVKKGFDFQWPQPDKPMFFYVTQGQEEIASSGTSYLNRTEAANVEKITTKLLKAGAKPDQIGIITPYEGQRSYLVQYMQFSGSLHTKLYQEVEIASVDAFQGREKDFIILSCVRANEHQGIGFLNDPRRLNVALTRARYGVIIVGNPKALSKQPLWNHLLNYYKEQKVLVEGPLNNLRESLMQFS
Nature of the data set: fluorescence anisotropy; no nucleotide; 1 mM Mg2+; 20 mM Hepes pH 7.5, 100 mM NaCl, 1 mM MgCl2, 100 ug/ml BSA; 5 nM RNA; 30 min room temperature, read at 25 C. The conditions noted are these: protein: recombinant; tags: 6xHis, His-Trx or His-GST fusion in E. coli; label: 5' 6-FAM; single strand. (Polarisation of emitted light reports the rotation of a fluorescent probe.)

Data set [5] has as its target T1, UPF1. Nature of the data set: fluorescence anisotropy; no nucleotide; affinity comparable to P1; Kd only in figure; 20 mM Hepes pH 7.5, 100 mM NaCl, 1 mM MgCl2, 100 ug/ml BSA; 5 nM RNA; 30 min room temperature, read at 25 C. The following applies: protein: recombinant; tags: 6xHis, His-Trx or His-GST fusion in E. coli; label: 5' 6-FAM; single strand.

Chain of GST-MOV10NTD-UPF1hel (human) (Q92900 whole entry, looked up): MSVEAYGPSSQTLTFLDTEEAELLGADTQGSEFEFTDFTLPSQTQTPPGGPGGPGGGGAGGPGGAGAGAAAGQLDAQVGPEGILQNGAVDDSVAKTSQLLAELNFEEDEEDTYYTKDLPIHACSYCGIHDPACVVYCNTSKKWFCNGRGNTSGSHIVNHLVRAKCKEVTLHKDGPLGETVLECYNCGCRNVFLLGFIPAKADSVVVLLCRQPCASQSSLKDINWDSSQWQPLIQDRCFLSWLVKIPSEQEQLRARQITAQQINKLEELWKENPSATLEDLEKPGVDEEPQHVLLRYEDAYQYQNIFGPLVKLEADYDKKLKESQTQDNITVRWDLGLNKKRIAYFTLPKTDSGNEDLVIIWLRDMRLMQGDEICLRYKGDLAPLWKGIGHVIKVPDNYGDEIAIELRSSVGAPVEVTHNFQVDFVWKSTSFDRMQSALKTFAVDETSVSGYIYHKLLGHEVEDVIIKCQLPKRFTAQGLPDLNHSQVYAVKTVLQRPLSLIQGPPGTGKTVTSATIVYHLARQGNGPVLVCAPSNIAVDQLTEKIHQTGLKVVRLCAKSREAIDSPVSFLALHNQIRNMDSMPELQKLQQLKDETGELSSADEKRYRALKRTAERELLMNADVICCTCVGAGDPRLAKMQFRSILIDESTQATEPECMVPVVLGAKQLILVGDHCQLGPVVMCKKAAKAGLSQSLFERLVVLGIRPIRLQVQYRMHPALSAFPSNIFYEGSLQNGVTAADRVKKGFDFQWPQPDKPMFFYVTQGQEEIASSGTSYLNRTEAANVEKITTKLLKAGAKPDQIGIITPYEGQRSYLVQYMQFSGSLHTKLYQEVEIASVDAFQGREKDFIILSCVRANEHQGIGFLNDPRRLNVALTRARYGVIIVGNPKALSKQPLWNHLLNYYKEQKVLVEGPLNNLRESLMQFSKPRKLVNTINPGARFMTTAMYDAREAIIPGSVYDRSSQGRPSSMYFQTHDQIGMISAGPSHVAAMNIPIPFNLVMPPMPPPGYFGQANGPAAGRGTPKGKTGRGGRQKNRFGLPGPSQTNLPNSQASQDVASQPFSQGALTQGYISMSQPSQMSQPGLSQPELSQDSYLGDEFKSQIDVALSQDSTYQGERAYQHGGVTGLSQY

With UPF2s (domain or fragment), in data set [1], the RNA-dependent ATPase activity of MOV10NTD-UPF1hel upon addition of UPF2 (1.5-fold excess), against the chimera alone came to 1.1 fold and the nucleic acid unwinding activity of MOV10NTD-UPF1hel (300 nM) upon addition of UPF2 (600 nM), against the chimera alone came to 1.25 fold. In data set [2], this molecule registered an RNA-dependent ATPase activity of UPF1 upon addition of UPF2 (1.5-fold excess), against UPF1 alone of 2.4 fold.

B1: UPF2 (near full-length variant, residues 121-1227) (domain or fragment, human, UniProt Q9HAU5 121-1227, looked up)
chain: MKEKEESIQLHQEAWERHHLRKELRSKNQNAPDSRPEENFFSRLDSSLKKNTAFVKKLKTITEQQRDSLSHDFNGLNLSKYIAEAVASIVEAKLKISDVNCAVHLCSLFHQRYADFAPSLLQVWKKHFEARKEEKTPNITKLRTDLRFIAELTIVGIFTDKEGLSLIYEQLKNIINADRESHTHVSVVISFCRHCGDDIAGLVPRKVKSAAEKFNLSFPPSEIISPEKQQPFQNLLKEYFTSLTKHLKRDHRELQNTERQNRRILHSKGELSEDRHKQYEEFAMSYQKLLANSQSLADLLDENMPDLPQDKPTPEEHGPGIDIFTPGKPGEYDLEGGIWEDEDARNFYENLIDLKAFVPAILFKDNEKSCQNKESNKDDTKEAKESKENKEVSSPDDLELELENLEINDDTLELEGGDEAEDLTKKLLDEQEQEDEEASTGSHLKLIVDAFLQQLPNCVNRDLIDKAAMDFCMNMNTKANRKKLVRALFIVPRQRLDLLPFYARLVATLHPCMSDVAEDLCSMLRGDFRFHVRKKDQINIETKNKTVRFIGELTKFKMFTKNDTLHCLKMLLSDFSHHHIEMACTLLETCGRFLFRSPESHLRTSVLLEQMMRKKQAMHLDARYVTMVENAYYYCNPPPAEKTVKKKRPPLQEYVRKLLYKDLSKVTTEKVLRQMRKLPWQDQEVKDYVICCMINIWNVKYNSIHCVANLLAGLVLYQEDVGIHVVDGVLEDIRLGMEVNQPKFNQRRISSAKFLGELYNYRMVESAVIFRTLYSFTSFGVNPDGSPSSLDPPEHLFRIRLVCTILDTCGQYFDRGSSKRKLDCFLVYFQRYVWWKKSLEVWTKDHPFPIDIDYMISDTLELLRPKIKLCNSLEESIRQVQDLEREFLIKLGLVNDKDSKDSMTEGENLEEDEEEEEGGAETEEQSGNESEVNEPEEEEGSDNDDDEGEEEEEENTDYLTDSNKENETDEENTEVMIKGGGLKHVPCVEDEDFIQALDKMMLENLQQRSGESVKVHQLDVAIPLHLKSQLRKGPPLGGGEGEAESADTMPFVMLTRKGNKQQFKILNVPMSSQLAANHWNQQQAEQEERMRMKKLTLDINERQEQED
notes: UPF2, human, residues 121-1227; also called near full-length UPF2
Consider B1, for which the “fold less UPF2 coprecipitated than with Flag-MOV10fl and Flag-MOV10NTD” value in data set [3] is around 4 fold less.
As to UUUUUUUUUUUU (ssRNA) [U12 RNA], the Kd in data set [4] stood at 36 nM. In addition, the binding result in data set [5] is “binds”.
